Measurements reported in the supplement of paper PMC7125110.
± gives the standard error. This sample holds only a part of the variants without activity.

B1: glmS ribozyme (parent)
chain: AUAAAAGCGCCAGAACUACAGAAAUGUAGUUGACGAGGAGGAGGUUUAUCGAAUUUUCGGCGGAUGCCUCCAAA

Variants of: B1
Assay: self-cleavage kobs at 2500 uM GlcN6P; higher = faster cleavage; RNA array
Conditions: with glucosamine-6-phosphate
In short: (§1)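 A hybridised Cy3 probe tracked barcoded ribozyme variants, transcribed in situ by E. coli RNA polymerase on sequenced MiSeq chips, at 37 °C. The variants received 40 μM to 10 mM glucosamine-6-phosphate in HEPES/KCl/Mg(OAc)2 buffer. kobs came from decay fits and kcat and KM from weighted Michaelis–Menten fits.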

Variant	self-cleavage kobs at 2500 uM GlcN6P [s⁻¹]
G7A A12G G40U A48G A52C C67U	< 1e-05
A6G G60U G66U	< 1e-05
G29A A48U U69A	< 1e-05
C16U G43C U45G	0.000762 ± 0.00024
A14U G29U C67U	9.48e-05 ± 2.4e-05
C11U G13C G62A C71U	< 1e-05
G43C U46G A52G U54G G60A	< 1e-05
C8G A48U G62A	< 1e-05
A36C A42U G63C	< 1e-05
G9A A14G A33C G38U U57A	< 1e-05
C10U G13A A52U U69G	4.08e-05 ± 1.4e-05
G38A C50G U69G	6.3e-05 ± 1.7e-05
G13U U54A U65A	5.74e-05 ± 1.5e-05
A39C G60C C67G	< 1e-05
G26U U65A	0.00219 ± 0.00042
G44U G62C G66A C67G	< 1e-05
G38U A48G U55C C67G	< 1e-05
A14U U30A A39C	2.93e-05 ± 1.5e-05
C11G G41A G62U C68U	< 1e-05
A53G U56C G60U G62A	< 1e-05
U31C U45A U57C	4.12e-05 ± 1.4e-05
A14U A33C U55G	7.4e-05 ± 2.1e-05
C34U G37C A42U	< 1e-05

Variant	self-cleavage kobs at 2500 uM GlcN6P [s⁻¹]
U30A C68G	7.09e-05 ± 1.5e-05
A15U C58G	2.95e-05 ± 1e-05
A6G A42C U69G	0.000462 ± 0.00019
A6C G13U G60U U65C	< 1e-05
C10A C34A U65C G66C C71G	< 1e-05
G41U A42C C70U	0.000121 ± 2.6e-05
A36G A39U G62U	< 1e-05
C11U G35U C67A C70A	5.48e-05 ± 2.6e-05
G40U A42U G43A C71A	< 1e-05
A15C G38A C67U	< 1e-05
A12U U57C C71G	0.000242 ± 0.00011
A53C U57G C67U	8.03e-05 ± 2.5e-05
G32A U49A U65G	< 1e-05
G37C U55G G63A C71G	< 1e-05
G7A U46C A52U C58A	< 1e-05
A15U A33U G62A	< 1e-05
A15U G40U U49A G60U	< 1e-05
A15G U31G G32U U45A	0.000424 ± 0.00012
G13U U31C C70U	0.000186 ± 4.5e-05
C8A A53U C71U	< 1e-05
U31G A36C G38A G40A	< 1e-05
G38C U46G G59A	< 1e-05
A6U C10G C50G A52G U55A C68A	0.000313 ± 7.4e-05

Variant	self-cleavage kobs at 2500 uM GlcN6P [s⁻¹]
A15U U30G C58U	2.92e-05 ± 1.5e-05
A15C U69A	4.7e-05 ± 1.5e-05
A39C A53G C58A C61A	< 1e-05
C8U A36C U45G A53G G60C C67A	< 1e-05
A6C U46C U49C G63A	< 1e-05
G7C A14G G43A U46A U47C G60U	< 1e-05
A39G G51A C68U	< 1e-05
C11U C16G G43A	< 1e-05
G35C A42G U49C	< 1e-05
G29A U65C	6.71e-05 ± 1.9e-05
C8U G32A A33U G35C G37U A39U G51C G60C	< 1e-05
G38C G41C C61A C71G	< 1e-05
A6U U45G A48U	< 1e-05
A6U C10A U49C C70G C71G	0.00019 ± 8.2e-05
A14C C16A G63U	< 1e-05
U56G G60U G63C	< 1e-05
C34A A39U C50A A53G C68U	< 1e-05
C11G G29C G37U A52C	< 1e-05
U46A C58A C61U	< 1e-05
G35A A36U G44A A52G C61G C67A	< 1e-05
U45C G66C C71A	6.04e-05 ± 2.8e-05
U31A A39U C70U	0.00182 ± 0.0009
C8G A42C U45C C71G	< 1e-05

Variant	self-cleavage kobs at 2500 uM GlcN6P [s⁻¹]
U30C G35A G37U C70A	0.000153 ± 4.9e-05
C8U C34G U69G	8.61e-05 ± 2.2e-05
A14C G43U C61A	< 1e-05
A15C G44A C58G G62U	< 1e-05
A36C A42C U54C	< 1e-05
C34G U46C	< 1e-05
U2G U46G A53U	0.00369 ± 0.0011
G7U C11G C16G G32A A53U	< 1e-05
C8U G13A G51A	< 1e-05
A39C A53U C67A	6.25e-05 ± 1.6e-05
G37U G38U A39C	< 1e-05
G9A U31G G40C	< 1e-05
A14U G29U G32C U56C C68A C70U	< 1e-05
G35A G37U G51C	< 1e-05
G37C U57C C58G	< 1e-05
A15C G43U C67A	0.000235 ± 7.7e-05
G35A A52U U54A C61U C67G	< 1e-05
G37A G38C A42C	< 1e-05
G9A G44U C68G C70G	< 1e-05
G13C A15C G32U G44A G59U	< 1e-05
G9U G32C G41U U47G A52G U65G U69A	< 1e-05
U30C U47A U57C	< 1e-05
U31G G63C	< 1e-05

Variant	self-cleavage kobs at 2500 uM GlcN6P [s⁻¹]
G37U U56C C67A	< 1e-05
C11G G41U U57A	< 1e-05
G35C C58G G60U U65C	< 1e-05
A14C U46C C50A U57C C61U U65C	< 1e-05
C11A C16U A53U	5.99e-05 ± 2.5e-05
A15U A36G A39U	< 1e-05
G35A U46A A64G	< 1e-05
A36U A42G U49G U56C G66U C71U	< 1e-05
G44A A53U U54C	0.000119 ± 4.8e-05
C11U G29A C71G	8.63e-05 ± 3e-05
G32A A42U U46C	< 1e-05
G13U U47A U56G	0.000242 ± 6e-05
G37A A39C G59C	< 1e-05
A15U G35U A48C A64U	< 1e-05
G7U A36U C68U	< 1e-05
A12U G13U A33G A39U A48U	< 1e-05
A15G G32C A53G	4.37e-05 ± 1.3e-05
U31A U46C A53G C70A	4.56e-05 ± 1.7e-05
U31G C61A C67A	0.000101 ± 2.8e-05
U30A G51A C61U	< 1e-05
A14U C16A U31G G32U	0.000112 ± 4.4e-05
A53G U55G G66U	0.00112 ± 0.00027
G29C G59A G66C	< 1e-05

Variant	self-cleavage kobs at 2500 uM GlcN6P [s⁻¹]
G40C G60A G66A	< 1e-05
G9A G13C C34A G40C C50U C71G	< 1e-05
G37U A52U C71U	< 1e-05
C50U G59A C70G C71U	5.06e-05 ± 1.7e-05
C16U U57A C70A	8.78e-05 ± 3.6e-05
G13A C34U G43U	< 1e-05
C11U A12G C16U G40A C68U	< 1e-05
A39G A52U C58A	< 1e-05
A14C A52G	0.000215 ± 3.3e-05
G38A A53G G63U	< 1e-05
A14U G43C C68U	5.22e-05 ± 1.6e-05
G44U C67U C71A	3.95e-05 ± 1.3e-05
C16U G43A U49A	< 1e-05
G32C G41C G43C C61A	< 1e-05
C8A C11U C34G G38A	< 1e-05
A15G G59A C70U	4.76e-05 ± 1.4e-05
C8G A12U U31A G51C	< 1e-05
C16G G38A U47C G62A	< 1e-05
C11U A42G U54G G66A	0.000265 ± 7.1e-05
G9U G29A A33U	< 1e-05
A33G U45G U47G	< 1e-05
A6G G7A C8U C61U	< 1e-05
G13U G29C G40C C50U A52C	< 1e-05

Variant	self-cleavage kobs at 2500 uM GlcN6P [s⁻¹]
A15C C16U U17A C70G	7.4e-05 ± 1.7e-05
U49C U55A G62C	< 1e-05
G7U C10G A12C A42C G62U	< 1e-05
G7C C10G G51U	< 1e-05
A33U U55G C58G	< 1e-05
G7A G29U G59A G62U	< 1e-05
G29A G35C C71A	< 1e-05
A15G G44C	0.00014 ± 4.2e-05
G37U G40U U55C	< 1e-05
A6G G60A C67G	< 1e-05
C16U A36C A52C C61A	< 1e-05
G9U G35C A42U	< 1e-05
U30G C67U C71G	0.00027 ± 9.4e-05
A15U G29A G35U G37A U54A	< 1e-05
U45G U46G A52G	5.59e-05 ± 2.7e-05
C16G G43A U57A G66U U69A	< 1e-05
G13A G32U G35C A39C	< 1e-05
G32C C50U U69A	0.000245 ± 8.3e-05
A33G G37A G62C	< 1e-05
G32A G60C C70A	< 1e-05
G7C A14C G60C	< 1e-05
U56C C58U G63A	< 1e-05

Variants of: B1
Assay: self-cleavage kobs at 10000 uM GlcN6P; higher = faster cleavage; RNA array
Conditions: with glucosamine-6-phosphate
In short: as §1

Variant	self-cleavage kobs at 10000 uM GlcN6P [s⁻¹]
A15U C58G	4.63e-05 ± 1.2e-05
G37C U55G G63A C71G	< 1e-05
G13U U31C C70U	0.000187 ± 3.2e-05
G29A U65C	8.99e-05 ± 3.1e-05
C8G A42C U45C C71G	< 1e-05
A15U A36G A39U	< 1e-05
A36U A42G U49G U56C G66U C71U	< 1e-05
G44A A53U U54C	0.000211 ± 6.8e-05
G13U U47A U56G	0.000374 ± 6.2e-05
U30A G51A C61U	< 1e-05
A14U C16A U31G G32U	9.26e-05 ± 2.2e-05
A53G U55G G66U	0.00144 ± 0.00029
A14C A52G	0.000282 ± 5.3e-05
G44U C67U C71A	4.71e-05 ± 1.2e-05
G29A G35C C71A	< 1e-05
A15G G44C	0.000166 ± 3.2e-05
